Results from patent publication US20090111753A1, “Nogo-A Polypeptide Fragments, Variant Nogo Receptor-1 Polypeptides, and Uses Thereof” (Yale University, priority 2004, published 2009).

T1: AP fusion protein with the B4C fragment of Amino-Nogo-A fused directly to Nogo-66 (human, UniProt Q9NQC3 1055-1120)
T1 construct: domain: Nogo-66; also called AP-B4C66; AP-B4C-66; not shown: alkaline phosphatase (AP), vector pcAP6
T1 sequence: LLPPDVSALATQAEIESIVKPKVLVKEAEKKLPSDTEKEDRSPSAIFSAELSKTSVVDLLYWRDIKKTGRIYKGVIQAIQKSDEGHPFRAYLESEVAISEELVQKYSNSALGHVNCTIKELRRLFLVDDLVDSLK

T2: AP-Nogo-66 (UniProt Q9NQC3 1055-1120)
T2 construct: domain: Nogo-66; construct described elsewhere (Fournier 2001); also called AP-Ng66; Ng66; not shown: alkaline phosphatase (AP); construct described elsewhere
T2 sequence (looked up): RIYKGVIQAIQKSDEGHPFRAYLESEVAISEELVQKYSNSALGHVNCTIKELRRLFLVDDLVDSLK

T3: AP-fused Amino-Nogo fragment B4C (a.a. 950-1018) (human, UniProt Q9NQC3 950-1018)
T3 construct: also called AmNg B4C; AP-B4C; not shown: alkaline phosphatase (AP), vector pcAP6
T3 sequence: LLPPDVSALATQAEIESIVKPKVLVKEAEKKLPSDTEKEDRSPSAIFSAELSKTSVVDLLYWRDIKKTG


Columns and labels:
[1] = molecular target: T1, AP fusion protein with the B4C fragment …; experiment: AP-ligand binding, COS-7
[2] = molecular target: T2, AP-Nogo-66; experiment: AP-ligand binding, COS-7
[3] = molecular target: T3, AP-fused Amino-Nogo fragment B4C (a.a. …); experiment: AP-ligand binding, COS-7
[4] = tested on: NgR ligands; experiment: Binding of alanine substituted NgR mutants to NgR ligands, summary categories; settings: AP-Nogo66, AP-B4C, AP-B4C66, AP-Lingo-1, AP-OMgp and AP-MAG; compared to wild type NgR
Summary of the method: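 AP-fused ligands (Nogo66, B4C, B4C66, Lingo-1, OMgp, MAG) were assayed against 74 Ala-substitution mutants of human NgR1 targeting surface charged patches, glycosylation sites and predicted binding regions, plus the D259N variant. Outcomes were grouped into categories: binding lost for all ligands, retained for all, or ligand-selective.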

| Molecule | binding result [1] | binding result [2] | binding result [3] | ligand binding category of NgR mutant (Table II) [4] |
| --- | --- | --- | --- | --- |
| human NgR1 alanine mutant 111, 113, 114, 138 (receptor) CPGACVCYNEPKVTTSCPQQGLQAVPVGIPAASQRIFLHGNRISHVPAASFRACRNLTILWLHSNVLARIDAAAFTGLALLEQLALAANAQLRSVDPATFHGLGRLHTLHLARCGLQELGPGLFRGLAALQYLYLQDNALQALPDDTFRDLGNLTHLFLHGNRISSVPERAFRGLHSLDRLLLHQNRVAHVHPHAFRDLGRLMTLYLFANNLSALPTEALAPLRALQYLRLNDNPWVCDCRARPLWAWLQKFRGSSSEVPCSLPQRLAGRDLKRLAANDLQGCAVATGPYHPIWTGRATDEEPLGLPKCCQPDAADKASVLEPGRPASAGNALKGRVPPGDSPPGNGSGPRHINDSPFGTLPGSAEPPLTAVRPEGSEPPGFPTSGPRRRPGCSRKNRTRSHCRLGQAGSGGGGTGDSEGSGALPSLTCSLTPLGLALVLWTVLGPC | no binding | no binding | no binding | No binding |
| human NgR1 alanine mutant 182, 186, 158, 160 (receptor) CPGACVCYNEPKVTTSCPQQGLQAVPVGIPAASQRIFLHGNRISHVPAASFRACRNLTILWLHSNVLARIDAAAFTGLALLEQLDLSDNAQLRSVDPATFHGLGRLHTLHLDRCGLQELGPGLFRGLAALQALALQDNALQALPDDTFRDLGNLTALFLAGNRISSVPERAFRGLHSLDRLLLHQNRVAHVHPHAFRDLGRLMTLYLFANNLSALPTEALAPLRALQYLRLNDNPWVCDCRARPLWAWLQKFRGSSSEVPCSLPQRLAGRDLKRLAANDLQGCAVATGPYHPIWTGRATDEEPLGLPKCCQPDAADKASVLEPGRPASAGNALKGRVPPGDSPPGNGSGPRHINDSPFGTLPGSAEPPLTAVRPEGSEPPGFPTSGPRRRPGCSRKNRTRSHCRLGQAGSGGGGTGDSEGSGALPSLTCSLTPLGLALVLWTVLGPC | no binding | no binding | no binding | No binding |

Second part, the molecule after the results:

| binding result [1] | binding result [2] | binding result [3] | ligand binding category of NgR mutant (Table II) [4] | Molecule |
| --- | --- | --- | --- | --- |
| no binding | no binding | no binding | No binding | human NgR1 alanine mutant 67, 68, 95, 97 (receptor) CPGACVCYNEPKVTTSCPQQGLQAVPVGIPAASQRIFLHGAAISHVPAASFRACRNLTILWLHSNVLAAIAAAAFTGLALLEQLDLSDNAQLRSVDPATFHGLGRLHTLHLDRCGLQELGPGLFRGLAALQYLYLQDNALQALPDDTFRDLGNLTHLFLHGNRISSVPERAFRGLHSLDRLLLHQNRVAHVHPHAFRDLGRLMTLYLFANNLSALPTEALAPLRALQYLRLNDNPWVCDCRARPLWAWLQKFRGSSSEVPCSLPQRLAGRDLKRLAANDLQGCAVATGPYHPIWTGRATDEEPLGLPKCCQPDAADKASVLEPGRPASAGNALKGRVPPGDSPPGNGSGPRHINDSPFGTLPGSAEPPLTAVRPEGSEPPGFPTSGPRRRPGCSRKNRTRSHCRLGQAGSGGGGTGDSEGSGALPSLTCSLTPLGLALVLWTVLGPC |
| no binding | no binding | no binding | No binding | human NgR1 alanine mutant 87, 89, 133, 136 (receptor) CPGACVCYNEPKVTTSCPQQGLQAVPVGIPAASQRIFLHGNRISHVPAASFRACRNLTILALASNVLARIDAAAFTGLALLEQLDLSDNAQLRSVDPATFHGLGRLATLALDRCGLQELGPGLFRGLAALQYLYLQDNALQALPDDTFRDLGNLTHLFLHGNRISSVPERAFRGLHSLDRLLLHQNRVAHVHPHAFRDLGRLMTLYLFANNLSALPTEALAPLRALQYLRLNDNPWVCDCRARPLWAWLQKFRGSSSEVPCSLPQRLAGRDLKRLAANDLQGCAVATGPYHPIWTGRATDEEPLGLPKCCQPDAADKASVLEPGRPASAGNALKGRVPPGDSPPGNGSGPRHINDSPFGTLPGSAEPPLTAVRPEGSEPPGFPTSGPRRRPGCSRKNRTRSHCRLGQAGSGGGGTGDSEGSGALPSLTCSLTPLGLALVLWTVLGPC |
